Experimental findings from patent US20220033501A1 (SHANGHAI PHARMAEXPLORER, published 2022) are described below.

Assay [1] has as its target T1, monkey TIM-3 on CHOK1 stable cell line (CHOK1-cTIM-3) (monkey).
T1 chain: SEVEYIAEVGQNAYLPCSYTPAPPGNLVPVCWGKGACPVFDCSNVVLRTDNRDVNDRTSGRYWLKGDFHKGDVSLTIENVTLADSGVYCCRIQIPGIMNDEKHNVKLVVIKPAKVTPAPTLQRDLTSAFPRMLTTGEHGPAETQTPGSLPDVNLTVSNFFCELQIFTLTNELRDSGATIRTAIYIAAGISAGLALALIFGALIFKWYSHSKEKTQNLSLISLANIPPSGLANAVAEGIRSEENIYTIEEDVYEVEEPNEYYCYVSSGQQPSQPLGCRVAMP
Briefly: FACS, CHOK1-cTIM-3 cells, 0.32 nM antibody. For orientation: Flow cytometry measures light scatter and fluorescence of single cells or particles in a stream.

In assay [2] the target is T1, monkey TIM-3 on CHOK1 stable cell line …. Description: FACS, CHOK1-cTIM-3 cells, 0.064 nM antibody.
For assay [3], the target named is T2, human TIM-3 extracellular domain protein with hFc tag (hTIM-3-hFc) (human, UniProt Q8TDQ0 22-200).
T2 construct: not shown: human IgG Fc fragment (hFc) of the pCpC vector
T2 sequence: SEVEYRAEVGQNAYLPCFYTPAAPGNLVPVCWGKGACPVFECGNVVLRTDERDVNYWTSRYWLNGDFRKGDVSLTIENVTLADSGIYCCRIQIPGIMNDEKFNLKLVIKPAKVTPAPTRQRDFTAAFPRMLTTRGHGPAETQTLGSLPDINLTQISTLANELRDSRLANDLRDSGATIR
Briefly: ELISA, coated human TIM-3 ECD protein, 0.0001 nM antibody.

The target of assay [4] is T3, monkey TIM-3 extracellular domain protein with hFc tag (cTIM-3-hFc) (monkey).
T3 construct: not shown: human IgG Fc fragment (hFc) of the pCpC vector
T3 chain: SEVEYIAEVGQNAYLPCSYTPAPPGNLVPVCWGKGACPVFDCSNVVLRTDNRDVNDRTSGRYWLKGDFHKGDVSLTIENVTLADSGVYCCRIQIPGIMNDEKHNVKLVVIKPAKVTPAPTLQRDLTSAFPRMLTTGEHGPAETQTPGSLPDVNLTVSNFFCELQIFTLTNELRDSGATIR
Description: ELISA, coated monkey TIM-3 ECD protein, 0.0001 nM antibody.

Assay [5] addresses T3, monkey TIM-3 extracellular domain …. Description: ELISA, coated monkey TIM-3 ECD protein, 0.0667 nM antibody. (In general: In an ELISA, binding on a coated surface is turned into a signal by an enzyme label.)
The target in assay [6] is T4, murine TIM-3 protein with hFc tag (mTIM-3-hFc protein) (mouse; human, UniProt Q8VIM0 29-191).
T4 construct: Made in HEK293 cells; also called mouse TIM-3 extracellular domain protein; not shown: human IgG Fc fragment (hFc) of the pCpC vector
T4 chain: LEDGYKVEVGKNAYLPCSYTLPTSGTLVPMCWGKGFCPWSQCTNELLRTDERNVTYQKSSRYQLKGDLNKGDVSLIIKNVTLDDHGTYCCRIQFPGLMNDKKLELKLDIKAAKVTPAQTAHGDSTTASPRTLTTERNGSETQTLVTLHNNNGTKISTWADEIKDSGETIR
Description: ELISA, coated mTIM-3-hFc.

In assay [7] the target is T5, human TIM-3 protein with hFc tag (hTIM-3-hFc protein) (human, UniProt Q8TDQ0 22-200).
T5 construct: also called immunogen 1; human TIM-3 extracellular domain protein; not shown: human IgG Fc fragment (hFc) of the pCpC vector
T5 sequence: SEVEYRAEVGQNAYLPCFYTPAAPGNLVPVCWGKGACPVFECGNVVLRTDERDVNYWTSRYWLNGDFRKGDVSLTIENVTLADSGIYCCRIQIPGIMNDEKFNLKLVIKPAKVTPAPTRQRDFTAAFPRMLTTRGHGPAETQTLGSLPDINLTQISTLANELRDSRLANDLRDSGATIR
Briefly: ELISA, coated hTIM-3-hFc; antibody 0.0067 nM. The text has this:
(§1) The amino acid sequence 22-200 of the extracellular domain of the human TIM-3 protein described in the step of Example 1 (as shown in SEQ ID NO. 71 in the sequence listing) was cloned into a pCpC vector having a human IgG Fc fragment (hFc), and transfected into HEK293 cells. The cell culture medium was collected, and purified to obtain the human TIM-3 protein with hFc tag (herein referred to as hTIM-3-hFc protein). The amino acid sequence 22-201 of the extracellular domain of the monkey TIM-3 protein (as shown in SEQ ID NO. 72 in the sequence listing) was cloned into a pCpC vector having a human IgG Fc fragment (hFc), and transfected into HEK293 cells. The cell culture medium was collected, and purified to obtain the monkey TIM-3 protein with hFc tag (herein referred to as cTIM-3-hFc protein). […] The cell culture medium was collected, and purified to obtain the murine TIM-3 protein with hFc tag (herein referred to as mTIM-3-hFc protein). Purified human, monkey, and mouse TIM-3 extracellular domain proteins (hTIM-3-hFc, cTIM-3-hFc, and mTIM-3-hFc) were diluted with PBS to a final concentration of 1.0 μg/ml and then added to a 96-well ELISA plate with 100 μl per well. The plate was sealed with plastic film and incubated overnight at 4° C. The plate was washed 4 times with the plate washing solution (PBS+0.01% Tween20) on the next day, and added with the blocking solution (PBS+0.01% Tween20+1% BSA) and sealed at room temperature for 1-2 hours. The blocking solution was poured out. 50-100 μl of the antibody sample to be tested was added to each well. The plate was incubated at 37° C. for 1-2 hours, and washed 2-3 times with plate washing solution (PBS+0. 01% Tween20). HRP (horseradish peroxidase) labeled secondary antibody was added. The plate was incubated at 37° C. for 1-2 hours, and washed 2-3 times with plate washing solution (PBS+0. 01% Tween20). […] of TMB substrate was added to each well. After incubated at room temperature for 15-30 minutes, the plate was added with […] stop solution (1.0N HCl) to each well. An ELISA plate reader (TiterMax 384plus, Molecular Device) was used to read the A450 nm value.

Assay [8] deals with T6, monkey TIM-3 protein with hFc tag (cTIM-3-hFc protein) (monkey; human).
T6 construct: Made in HEK293 cells; also called monkey TIM-3 extracellular domain protein; not shown: human IgG Fc fragment (hFc) of the pCpC vector
T6 chain: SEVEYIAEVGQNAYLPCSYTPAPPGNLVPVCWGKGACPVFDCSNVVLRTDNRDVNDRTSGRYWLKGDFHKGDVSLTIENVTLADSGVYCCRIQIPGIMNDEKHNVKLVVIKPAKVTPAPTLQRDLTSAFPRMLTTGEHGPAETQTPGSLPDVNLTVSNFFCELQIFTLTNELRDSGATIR
Briefly: ELISA, coated cTIM-3-hFc; antibody 0.0007 nM.
Source text: as §1

Assay [9] addresses T6, monkey TIM-3 protein with hFc tag …. Briefly: ELISA, coated cTIM-3-hFc; antibody 0.0667 nM.
Source text: as §1

The target is the same in assay [10]. Description: ELISA, coated cTIM-3-hFc; antibody 6.6667 nM.
Source text: as §1

The target of assay [11] is T4, murine TIM-3 protein with hFc tag …. Briefly: ELISA, coated mTIM-3-hFc; antibody 0.0067 nM.
Source text: as §1

B1: 57F4E5 fully human TIM-3 antibody (human IgG4, kappa) (antibody, V domains shown)
VH: EVQLVESGGGLVQPGGSLRLSCAASGFTFSSYWMSWVRQAPGKGLEWVANIKQDGSEKYYVDSVKGRFTISRDSAKNSLYLQMNSLRAEDTAMYFCARDSNFFDYWGQGTLVTVSS
VL: ETVMTQSPATLSVSPGERATLSCRASQSVSSNLAWYQRKPGQAPRLLIYFSSTRATGIPARFSGSGSGTEFTLTISSLQSEDFAVYYCQQYNNWPLTFGGGTKVEIK
B1: the Mean fluorescence intensity was 80.6 in assay [1] and 30.6 in assay [2]. Further, the OD450 in assay [3] was determined as 0.08; in assay [4] it was 0.17; in assay [5], 1.34.

B2: 134H3G6 (TIM-3 antibody purified from hybridoma, chimeric antibody of Example 2) (antibody, V domains shown)
VH: EVQLVESGGGLVQPGGSLRLSCAASGFTFSNSWMTWVRQAPGKGLEWVANIKQAGTEKYYVDSVKGRFTISRDNAKNSLYLQMNSLRAEDTAVYYCNSGSNYFDYWGQGTLVTVSS
VL: EIVMTQSPATLSVSPGERATLSCRARQNFYSNLAWYQQKPGQAPRLLIYGASTRATGIPARFSGSGSGTEFTLTISSLQSEDFAVYYCQQYNNWPLTFGGGTKVEIK
notes: From hybridoma of Harbour H2L2 transgenic mice: human variable regions, rat constant regions
With B2, in assay [6], the binding result is “no binding (tested: 66.667 nM)”. The OD450 is 0.13 in assay [7]; 0.55 in assay [8]; 0.64 in assay [9]; 3.02 in assay [10]; 0.64 in assay [11].

B3: 57F4E5 (TIM-3 antibody purified from hybridoma, chimeric antibody of Example 2) (antibody, V domains shown)
VH: EVQLVESGGGLVQPGGSLRLSCAASGFTFSSYWMSWVRQAPGKGLEWVANIKQDGSEKYYVDSVKGRFTISRDSAKNSLYLQMNSLRAEDTAMYFCARDSNFFDYWGQGTLVTVSS
VL: ETVMTQSPATLSVSPGERATLSCRASQSVSSNLAWYQRKPGQAPRLLIYFSSTRATGIPARFSGSGSGTEFTLTISSLQSEDFAVYYCQQYNNWPLTFGGGTKVEIK
notes: as for B2
On to B3, for which the binding result in assay [6] is “no binding (tested: 66.667 nM)”. The OD450 in assay [7] is 0.63; in assay [8], 0.64; in assay [9] it was 2.68; in assay [10], 3.48; in [11], 0.68.

B4: 39E5H1 (TIM-3 antibody purified from hybridoma, chimeric antibody of Example 2) (antibody, V domains shown)
VH: EVQLVESGGGLVQPGGSLRLSCAASGFTFSSYWMSWVRQAPGKGLEWVANIKRGGSERYYVDSVKGRFTISGDNAKNSVYLQMNSLRAEDTAVYYCARGSNWFDPWGQGTLVTVSS
VL: ETVMTQSPAILSVSPGERATLSCRASQSVYSNLAWYQQKLGQAPRLLIYDASTRATGIPARFSGSGSGTEFTLTISSLQSEDFAVYYCQQYNNWPITFGQGTRLEIK
notes: as for B2
As for B4, the binding result in [6] is “no binding (tested: 66.667 nM)”. Also, the OD450 in [7] stood at 0.42; in assay [8], 0.61; in assay [9] it was 1.98; in assay [10], 3.5; in assay [11] it was 0.64.

B5: 18D2H2 (TIM-3 antibody purified from hybridoma, chimeric antibody of Example 2) (antibody, V domains shown)
VH: EVQLVESGGDLVQPGGSLRLSCAASGFTFSTYWMTWVRQAPGRGLEWVANIKQDGSAKYYVDSVKGRFTLSRDDAKNSLYLQMNSLRAEDTAVYYCARGSNWFDYWGQGTLVTVSS
VL: ETVMTQSPATLSVSPGERATLSCRANQNVYSNLAWYQQKPGQAPRLLIYDASTRATGFPARFSGSGSGTEFTLTISSLQSEDFAVYYCQQYNNWPLTFGGGTKVEIK
notes: as for B2
Consider B5, for which, in assay [6], the binding result is “no binding (tested: 66.667 nM)”. Besides, the OD450 turned out to be 0.16 in assay [7]; 0.54 in [8]; 0.74 in assay [9]; 3.34 in [10]; 0.63 in assay [11].

B6: 215A8F2 (TIM-3 antibody purified from hybridoma, chimeric antibody of Example 2) (antibody, V domains shown)
VH: QVQLQQWGAGLLKPSETLSLTCTVYGGSFSGYYWNWIRQPPGKGLEWLGEINHSGSTNYNPSLKRRVTISVDTSKNQFSLKLSSVTAADTAVYYCARVYYYGPFDFWGQGTLVTVSS
VL: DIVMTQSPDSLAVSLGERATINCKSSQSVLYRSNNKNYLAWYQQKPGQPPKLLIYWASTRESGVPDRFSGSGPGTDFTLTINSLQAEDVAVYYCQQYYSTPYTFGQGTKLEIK
notes: as for B2
B6: the binding result in assay [6] was “no binding (tested: 66.667 nM)”. Also, the OD450 came to 0.28 in assay [7]; 0.55 in [8]; 1.5 in [9]; 3.45 in [10]; 0.64 in assay [11].

B7: 7A4F10 (TIM-3 antibody purified from hybridoma, chimeric antibody of Example 2) (antibody, V domains shown)
VH: EVQLLESGGGLVQPGGSLRLSCAASGFTFRTHLISWVRQAPGKGLEWVAAITGSGGSTYYADSVKGRFIISRDNSKNTLFLQMNSLRAEDTAVYYCAKDGGSGSYDDFWGQGTLVTVSS
VL: ETVLTQSPVTLSLSPGERATLSCRASQSVGSYLAWYQQKPGQAPRLLIYDASNRATGIPARFSGSGSGTDFTLTISSLEPEDFAVYYCQQRSNWPPTFGQGTKVEIK
notes: as for B2
For B7, the binding result in assay [6] is “no binding (tested: 66.667 nM)”. Also, the OD450 in assay [7] was 0.13; in [8] it was 0.55; in [9], 0.7; in assay [10] it was 3.12; in [11] it was 0.64.

B8: 34B6D8 (TIM-3 antibody purified from hybridoma, chimeric antibody of Example 2) (antibody, V domains shown)
VH: EVQLVESGGGLVQPGGSLRLSCAASGFTFSTYWMTWVRQAPGKRLEWVANIKQGGGDKYYVDSVKGRFTISTDNAKNSLYLQMNSLRAEDTAVYYCARGSNWFDPWGQGTLVTVSS
VL: EIVMTQSPATLSMSPGERATLSCRASQSVYDNLAWYQQKPGQAPRLLIYGASTRATGIPARFSGSGSGTEFTLTISSLQSEDFALYYCQQYTHWPITFGQGTRLEIK
notes: as for B2
For B8, in [6], the binding result was “no binding (tested: 66.667 nM)”. Also, the OD450 in [7] was 0.33; in assay [8], 0.61; in assay [9] it was 1.92; in assay [10] it was 3.55; in assay [11], 0.65.
